Reference: the supplement of paper PMC9112550, “Optimization of the antimicrobial peptide Bac7 by deep mutational scanning” (BMC Biology, 2022)

System: Escherichia coli TOP10
Assay: shrunken log2 fold change of peptide-encoding DNA abundance (4.5 h post-induction vs induction); higher = less antimicrobial activity (less host growth inhibition)
Settings: time post-induction: 4.5 h; library: site-saturation at positions 5, 18, 19, 20
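Also: peptides expressed intracellularly from a pBAD plasmid library in pooled LB shake-flask culture, induced with 0.3% L-arabinose, DNA abundance read by NGS, three biological replicates, DESeq2 with apeglm shrinkage.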

Row | Sequence | shrunken log2 fold change
1 | RRIRPRPPRLPRPRPRPYACPRP | -0.921
2 | RRIRPRPPRLPRPRPRPYAGPRP | -0.00254
3 | RRIRPRPPRLPRPRPRPYCAPRP | -0.312
4 | RRIRPRPPRLPRPRPRPYCDPRP | -0.907
5 | RRIRPRPPRLPRPRPRPYCKPRP | -0.896
6 | RRIRPRPPRLPRPRPRPYDNPRP | -0.415
7 | RRIRPRPPRLPRPRPRPYDQPRP | -0.15
8 | RRIRPRPPRLPRPRPRPYEEPRP | -0.214
9 | RRIRPRPPRLPRPRPRPYEHPRP | -0.408
10 | RRIRPRPPRLPRPRPRPYEIPRP | -0.0187
11 | RRIRPRPPRLPRPRPRPYEWPRP | -0.874
12 | RRIRPRPPRLPRPRPRPYFIPRP | -0.656
13 | RRIRPRPPRLPRPRPRPYHMPRP | -0.316
14 | RRIRPRPPRLPRPRPRPYHQPRP | 0.0122
15 | RRIRPRPPRLPRPRPRPYHVPRP | -0.199
16 | RRIRPRPPRLPRPRPRPYIHPRP | -0.946
17 | RRIRPRPPRLPRPRPRPYIMPRP | -0.976
18 | RRIRPRPPRLPRPRPRPYLDPRP | -0.908
19 | RRIRPRPPRLPRPRPRPYNCPRP | -1.4
20 | RRIRPRPPRLPRPRPRPYNSPRP | -0.55
21 | RRIRPRPPRLPRPRPRPYPAPRP | -0.582
22 | RRIRPRPPRLPRPRPRPYPHPRP | -0.237
23 | RRIRPRPPRLPRPRPRPYQLPRP | -0.441
24 | RRIRPRPPRLPRPRPRPYRFPRP | -0.261
25 | RRIRPRPPRLPRPRPRPYRSPRP | -0.295

Row | Sequence | shrunken log2 fold change
26 | RRIRPRPPRLPRPRPRPYSPPRP | -1.23
27 | RRIRPRPPRLPRPRPRPYTLPRP | -0.54
28 | RRIRPRPPRLPRPRPRPYTWPRP | -0.446
29 | RRIRPRPPRLPRPRPRPYVIPRP | -0.401
30 | RRIRPRPPRLPRPRPRPYVQPRP | -0.147
31 | RRIRPRPPRLPRPRPRPYVRPRP | -0.61
32 | RRIRQRPPRLPRPRPRPAACPRP | 0.183
33 | RRIRQRPPRLPRPRPRPAAHPRP | 0.179
34 | RRIRQRPPRLPRPRPRPADHPRP | -0.0888
35 | RRIRQRPPRLPRPRPRPADMPRP | -0.0927
36 | RRIRQRPPRLPRPRPRPADPPRP | 0.209
37 | RRIRQRPPRLPRPRPRPAELPRP | -0.00135
38 | RRIRQRPPRLPRPRPRPAEYPRP | 0.0734
39 | RRIRQRPPRLPRPRPRPAGMPRP | -0.148
40 | RRIRQRPPRLPRPRPRPAGWPRP | 0.808
41 | RRIRQRPPRLPRPRPRPAHAPRP | 0.0691
42 | RRIRQRPPRLPRPRPRPAHDPRP | -0.161
43 | RRIRQRPPRLPRPRPRPAHIPRP | -0.137
44 | RRIRQRPPRLPRPRPRPAHSPRP | 0.426
45 | RRIRQRPPRLPRPRPRPAKSPRP | -0.0281
46 | RRIRQRPPRLPRPRPRPALDPRP | 0.296
47 | RRIRQRPPRLPRPRPRPALNPRP | -0.0345
48 | RRIRQRPPRLPRPRPRPAMLPRP | 0.0266
49 | RRIRQRPPRLPRPRPRPAMYPRP | -0.244
50 | RRIRQRPPRLPRPRPRPANEPRP | -0.104

Row | Sequence | shrunken log2 fold change
51 | RRIRQRPPRLPRPRPRPAPDPRP | 0.261
52 | RRIRQRPPRLPRPRPRPAPEPRP | 0.228
53 | RRIRQRPPRLPRPRPRPARRPRP | 0.486
54 | RRIRQRPPRLPRPRPRPATCPRP | -0.0483
55 | RRIRQRPPRLPRPRPRPAYDPRP | -0.0146
56 | RRIRQRPPRLPRPRPRPAYQPRP | -0.00193
57 | RRIRQRPPRLPRPRPRPCAFPRP | -0.254
58 | RRIRQRPPRLPRPRPRPCANPRP | 0.00875
59 | RRIRQRPPRLPRPRPRPCAPPRP | 0.226
60 | RRIRQRPPRLPRPRPRPCDQPRP | 0.0849
61 | RRIRQRPPRLPRPRPRPCDWPRP | 0.202
62 | RRIRQRPPRLPRPRPRPCELPRP | 0.0039
63 | RRIRQRPPRLPRPRPRPCFFPRP | -0.101
64 | RRIRQRPPRLPRPRPRPCGKPRP | -0.116
65 | RRIRQRPPRLPRPRPRPCIKPRP | 0.155
66 | RRIRQRPPRLPRPRPRPCLQPRP | -0.112
67 | RRIRQRPPRLPRPRPRPCMAPRP | -0.117
68 | RRIRQRPPRLPRPRPRPCMIPRP | -0.0196
69 | RRIRQRPPRLPRPRPRPCPHPRP | -0.141
70 | RRIRQRPPRLPRPRPRPCPIPRP | 0.0347
71 | RRIRQRPPRLPRPRPRPCQTPRP | 0.00707
72 | RRIRQRPPRLPRPRPRPCSEPRP | -0.201
73 | RRIRQRPPRLPRPRPRPCWSPRP | -0.08
74 | RRIRQRPPRLPRPRPRPCWYPRP | -0.261
75 | RRIRQRPPRLPRPRPRPDAGPRP | -0.0738

Row | Sequence | shrunken log2 fold change
76 | RRIRQRPPRLPRPRPRPDASPRP | 0.0949
77 | RRIRQRPPRLPRPRPRPDDIPRP | -0.0246
78 | RRIRQRPPRLPRPRPRPDDNPRP | 0.0317
79 | RRIRQRPPRLPRPRPRPDDVPRP | 0.064
80 | RRIRQRPPRLPRPRPRPDELPRP | -0.0583
81 | RRIRQRPPRLPRPRPRPDICPRP | -0.0144
82 | RRIRQRPPRLPRPRPRPDIHPRP | -0.0439
83 | RRIRQRPPRLPRPRPRPDIYPRP | -0.284
84 | RRIRQRPPRLPRPRPRPDKHPRP | -0.205
85 | RRIRQRPPRLPRPRPRPDNNPRP | -1.14
86 | RRIRQRPPRLPRPRPRPDNWPRP | -0.117
87 | RRIRQRPPRLPRPRPRPDPGPRP | -0.00151
88 | RRIRQRPPRLPRPRPRPDPYPRP | 0.032
89 | RRIRQRPPRLPRPRPRPDRRPRP | 0.00167
90 | RRIRQRPPRLPRPRPRPDSDPRP | -0.159
91 | RRIRQRPPRLPRPRPRPDTVPRP | -0.171
92 | RRIRQRPPRLPRPRPRPDVGPRP | -0.0428
93 | RRIRQRPPRLPRPRPRPDVNPRP | -0.142
94 | RRIRQRPPRLPRPRPRPDYGPRP | -0.159
95 | RRIRQRPPRLPRPRPRPDYPPRP | 0.00454
96 | RRIRQRPPRLPRPRPRPEAKPRP | 0.0428
97 | RRIRQRPPRLPRPRPRPECIPRP | -0.269
98 | RRIRQRPPRLPRPRPRPECRPRP | 0.414
99 | RRIRQRPPRLPRPRPRPEDRPRP | -0.0214
100 | RRIRQRPPRLPRPRPRPEFCPRP | 0.0723

Row | Sequence | shrunken log2 fold change
101 | RRIRQRPPRLPRPRPRPEFMPRP | -0.0743
102 | RRIRQRPPRLPRPRPRPEFVPRP | 0.031
103 | RRIRQRPPRLPRPRPRPEHRPRP | -0.271
104 | RRIRQRPPRLPRPRPRPEIYPRP | -0.145
105 | RRIRQRPPRLPRPRPRPEMEPRP | 0.0171
106 | RRIRQRPPRLPRPRPRPEMLPRP | 0.0554
107 | RRIRQRPPRLPRPRPRPENKPRP | -0.578
108 | RRIRQRPPRLPRPRPRPEQMPRP | -0.00448
109 | RRIRQRPPRLPRPRPRPERAPRP | 0.53
110 | RRIRQRPPRLPRPRPRPETWPRP | 0.00978
111 | RRIRQRPPRLPRPRPRPEVEPRP | 0.0391
112 | RRIRQRPPRLPRPRPRPEYLPRP | -0.00804
113 | RRIRQRPPRLPRPRPRPFAKPRP | -0.0663
114 | RRIRQRPPRLPRPRPRPFAPPRP | 0.0897
115 | RRIRQRPPRLPRPRPRPFASPRP | -0.35
116 | RRIRQRPPRLPRPRPRPFCIPRP | -0.641
117 | RRIRQRPPRLPRPRPRPFCYPRP | -0.264
118 | RRIRQRPPRLPRPRPRPFEEPRP | -0.138
119 | RRIRQRPPRLPRPRPRPFFGPRP | 6.44e-05
120 | RRIRQRPPRLPRPRPRPFFNPRP | -0.438
121 | RRIRQRPPRLPRPRPRPFHFPRP | -0.0115
122 | RRIRQRPPRLPRPRPRPFHIPRP | -1.55
123 | RRIRQRPPRLPRPRPRPFKHPRP | -0.244
124 | RRIRQRPPRLPRPRPRPFKWPRP | -0.185
125 | RRIRQRPPRLPRPRPRPFLNPRP | -0.118

Row | Sequence | shrunken log2 fold change
126 | RRIRQRPPRLPRPRPRPFMRPRP | -0.0303
127 | RRIRQRPPRLPRPRPRPFMWPRP | -0.245
128 | RRIRQRPPRLPRPRPRPFNDPRP | 0.0753
129 | RRIRQRPPRLPRPRPRPFNHPRP | 0.0419
130 | RRIRQRPPRLPRPRPRPFRCPRP | -0.0452
131 | RRIRQRPPRLPRPRPRPFSKPRP | -0.218
132 | RRIRQRPPRLPRPRPRPFVLPRP | -0.277
133 | RRIRQRPPRLPRPRPRPFVTPRP | -1.13
134 | RRIRQRPPRLPRPRPRPFWMPRP | 0.00494
135 | RRIRQRPPRLPRPRPRPFYHPRP | -0.368
136 | RRIRQRPPRLPRPRPRPGAQPRP | 0.528
137 | RRIRQRPPRLPRPRPRPGCSPRP | 0.0894
138 | RRIRQRPPRLPRPRPRPGFRPRP | 0.0901
139 | RRIRQRPPRLPRPRPRPGGAPRP | 0.485
140 | RRIRQRPPRLPRPRPRPGGEPRP | 0.218
141 | RRIRQRPPRLPRPRPRPGHIPRP | -0.0594
142 | RRIRQRPPRLPRPRPRPGIFPRP | 0.0804
143 | RRIRQRPPRLPRPRPRPGILPRP | -0.181
144 | RRIRQRPPRLPRPRPRPGIPPRP | -0.0269
145 | RRIRQRPPRLPRPRPRPGKVPRP | -0.0155
146 | RRIRQRPPRLPRPRPRPGMLPRP | 0.105
147 | RRIRQRPPRLPRPRPRPGNYPRP | -0.222
148 | RRIRQRPPRLPRPRPRPGQSPRP | -0.0203
149 | RRIRQRPPRLPRPRPRPGQVPRP | 0.111
150 | RRIRQRPPRLPRPRPRPGREPRP | 0.221
